Experimental data: article PMC4832192, “Structural basis of DNA sequence recognition by the response regulator PhoP in Mycobacterium tuberculosis”

B1: RD6 (dsDNA)
DNA 1: AAGTACCTCACAGCACTTTCACAGCTTTCAT
DNA 2: ATGAAAGCTGTGAAAGTGCTGTGAGGTACTT
B2: RD6-half (dsDNA)
DNA 1: CAGAAGTCACAGCACTTGGG
DNA 2: CCCAAGTGCTGTGACTTCTG
B3: crystal direct-repeat DNA (dsDNA)
DNA 1: GATTCACAGCTGATTCACAGCATCTA
DNA 2: CTAGATGCTGTGAATCAGCTGTGAAT
B4: hisG (dsDNA)
DNA 1: CGCGACCCGCAGCATGCTCACAGCTTTCGA
DNA 2: TCGAAAGCTGTGAGCATGCTGCGGGTCGCG
B5: DRs3 (3-bp spacer) (dsDNA)
DNA 1: AAGTACCTCACAGCACTTCACAGCTTTCAT
DNA 2: ATGAAAGCTGTGAAGTGCTGTGAGGTACTT
B6: ahpC (dsDNA)
DNA 1: TTTGCCTGACAGCGACTTCACGGCACGATG
DNA 2: CATCGTGCCGTGAAGTCGCTGTCAGGCAAA
B7: tetra (four motifs) (dsDNA)
DNA 1: GTACCTCACAGCACTTTCACAGCTTTCTCACAGCTGATTCACAGCATCTATG
DNA 2: CATAGATGCTGTGAATCAGCTGTGAGAAAGCTGTGAAAGTGCTGTGAGGTAC
B8: tri (three motifs) (dsDNA)
DNA 1: GTACCTCACAGCACTTTCACAGCTTTCTCACAGCATCTATG
DNA 2: CATAGATGCTGTGAGAAAGCTGTGAAAGTGCTGTGAGGTAC
B9: lpqA (dsDNA)
DNA 1: GCACCTTCACCGCCCGCCCACAGCCACGCA
DNA 2: TGCGTGGCTGTGGGCGGGCGGTGAAGGTGC
B10: DR (dsDNA)
DNA 1: ACGATTCACAGCTGATTCACAGCATCTACG
DNA 2: CGTAGATGCTGTGAATCAGCTGTGAATCGT

What follows are binders tested against PhoPC (isolated effector/DNA-binding domain) (Mycobacterium tuberculosis, UniProt P71814 148-247) (assay: ITC; 5 mM MgCl2; ITC: 20 mM HEPES pH 7.5, 100 mM NaCl, 5 mM MgCl2, 25 C, DNA titrated into protein). Details: protein: recombinant; tags: His-tag removed (similar procedure); chain copies: 2.

Question: For B1, which Kd is on record?
Answer: The Kd was 188 ± 9 nM.

Question: How did the Kd turn out when B2 was run?
Answer: The Kd was 12200 ± 1600 nM.

The binders below were run against T1, PhoP wild type (Mycobacterium tuberculosis, UniProt P71814 1-247) (assay: X-ray crystal structure (2.4 A); Ca2+ at Asp71; 2:1 PhoP:DNA; ITC: 20 mM HEPES pH 7.5, 100 mM NaCl, 5 mM MgCl2, 25 C, […]). Details: protein: recombinant; tags: N-terminal His-tag removed with TEV; chain copies: 2; G/C overhangs.

Question: Does B3 bind?
Answer: Result: binds

What follows are binders tested against T1, PhoP wild type (assay: ITC; 5 mM MgCl2; ITC: 20 mM HEPES pH 7.5, 100 mM NaCl, 5 mM MgCl2, 25 C, […]). Details: protein: recombinant; tags: N-terminal His-tag removed with TEV; chain copies: 2.

Question: With B4 as the binder, how does the Kd read?
Answer: The Kd was 35.6 ± 4.3 nM.

Question: Which Kd does the source give for B5 here?
Answer: Its Kd is 433 ± 17.5 nM.

Question: Which Kd does the source give for B6 here?
Answer: Its Kd is 104 ± 7.2 nM.

Question: For B7, which Kd is on record?
Answer: Its Kd is 2.2 ± 0.7 nM.

Question: For B8, which Kd is on record?
Answer: The Kd was 4.6 ± 2.7 nM.

Question: For B9, which Kd is on record?
Answer: Its Kd is 347 ± 35.1 nM.

Question: For B10, which Kd is on record?
Answer: Its Kd is 19.2 ± 2.8 nM.
